Assays:
[1] = test system: FseI restriction endonuclease (from pRMFseR1, NEB#918, His at position 2) T2H (Frankia species NRRL 18528); experiment: cleavage_in_vitro; details: crude extract, NEBuffer 1, 30 C, 1 h; estimated titer
[2] = test system: FseI restriction endonuclease (from pRMFseR2, NEB#943, ATCC 69707) (Frankia species NRRL 18528); experiment: cleavage_in_vitro; details: crude extract; estimated titer; substrate inferred from section 7

Adenovirus-2 DNA
activity (units/g cells) [1]: > 10000
activity (units/g cells) [2]: > 10000

— patent US5543308
